Measured values taken from US11491212.

B1: FIXa-R318Y/R338E/R403E (mature FIX numbering) (protein)
chain 1: not shown
chain 2: not shown
B2: FIXa-R338E/R403E/E410N (mature FIX numbering) (protein)
chain 1: not shown
chain 2: not shown
B3: FIXa-D203N/F205T/E410N (mature FIX numbering) (protein)
chain 1: not shown
chain 2: not shown
B4: FIXa-K293A/R338A/R403A (mature FIX numbering) (protein)
chain 1: not shown
chain 2: not shown
B5: FIXa-D203N/F205T/R338E (mature FIX numbering) (protein)
chain 1: not shown
chain 2: not shown
B6: FIXa-Y155F/R318Y/R338E/R403E (mature FIX numbering) (protein)
chain 1: not shown
chain 2: not shown
B7: FIXa-K228N/247N/N249S/R318Y/R338E/T343R/E410N (protein)
chain 1: not shown
chain 2: not shown
B8: FIXa-D203N/F205T/R318Y (mature FIX numbering) (protein)
chain 1: not shown
chain 2: not shown
B9: FIXa-D203N/F205T/R338A (mature FIX numbering) (protein)
chain 1: not shown
chain 2: not shown
B10: FIXa-Y155F/R338E/R403E/E410N (mature FIX numbering) (protein)
chain 1: not shown
chain 2: not shown
B11: FIXa-K293E/R338E/R403E (mature FIX numbering) (protein)
chain 1: not shown
chain 2: not shown
B12: FIXa-D203N/F205T/R338E/R403E (mature FIX numbering) (protein)
chain 1: not shown
chain 2: not shown
B13: FIXa-D203N/F205T/K228N (mature FIX numbering) (protein)
chain 1: not shown
chain 2: not shown
B14: FIXa-K228N/K247N/N249S/R318Y/T343R/R403E/E410N (protein)
chain 1: not shown
chain 2: not shown

target: Factor X (FX), P00742
Sequence (P00742 whole entry, looked up): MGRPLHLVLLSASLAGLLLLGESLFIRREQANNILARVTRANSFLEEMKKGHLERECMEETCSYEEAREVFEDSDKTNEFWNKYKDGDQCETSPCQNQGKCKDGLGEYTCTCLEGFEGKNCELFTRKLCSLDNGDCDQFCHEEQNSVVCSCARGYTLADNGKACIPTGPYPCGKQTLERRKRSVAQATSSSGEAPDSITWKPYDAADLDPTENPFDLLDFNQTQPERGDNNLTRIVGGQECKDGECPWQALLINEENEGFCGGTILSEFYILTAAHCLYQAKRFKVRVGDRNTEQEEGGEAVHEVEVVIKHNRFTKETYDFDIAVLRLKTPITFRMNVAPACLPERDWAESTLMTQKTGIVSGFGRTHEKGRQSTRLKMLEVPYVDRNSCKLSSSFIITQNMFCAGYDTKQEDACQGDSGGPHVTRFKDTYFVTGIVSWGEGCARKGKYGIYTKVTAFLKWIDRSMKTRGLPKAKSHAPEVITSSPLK

Row | Protein | % of WT kcat/KM [%] | KM (nM), FX activation by FIXa in the Xase complex (FVIIIa, PC/PS vesicles, Ca2+), indirect fluorogenic assay with Spectrafluor FXa [nM] | kcat/KM [M⁻¹ s⁻¹]
1 | B1 | 134 |  | 
2 | B2 | 411 |  | 
3 | B3 | 91 |  | 
4 | B4 | 53 |  | 
5 | B5 | 228 |  | 
6 | B6 | 189 |  | 
7 | B7 |  | 38.1 | 
8 | B8 | 44 |  | 
9 | B9 | 135 |  | 
10 | B10 | 401 |  | 1.8e+08
11 | B11 | 36 |  | 
12 | B12 | 41 |  | 
13 | B13 | 30 |  | 
14 | B14 |  | 125 | 
